Assay results: patent US20140037708A1, “COMPOSITION FOR SPATIO AND/OR TEMPORAL RELEASE OF BIOACTIVE MATERIAL” (The Regents of the University of Colorado, a body corporate, priority 2012, published 2014)

Test: Double-sided release test of fluorescent molecules from electrospun scaffolds in custom-made diffusion chambers
Type: physicochemical
Procedure: For molecule release characterizations, the circular samples with 24 mm in diameter were cut from PCL-PLGAac and PCL-PLGAes scaffolds loaded with fluorescent dye or fluorescently-labeled albumin. For each experimental condition, 3 samples were used for analyses. Scaffold samples were placed in a custom-made diffusion-test system in which a sample was sandwiched between two reservoir chambers. Each side of the electrospun scaffolds thus faced a different reservoir filled with 1 ml of buffer solution. The reservoirs used SecureSeal hybridization chambers (Grace Biolabs, Bend, Oreg.) which tightly sealed the surface. Each reservoir had small holes for sampling and changing solutions. The holes were covered with silicone sealing tap during experiments to prevent evaporation. Thus, the molecule movements between the reservoirs could only be through the pores of the electrospun materials. The release tests were performed at 37° C. Samples of buffer solutions in both reservoirs were collected every day during the first 16 days, and subsequently once a week for scaffolds loaded with fluorescent albumins. A shorter release experiment was performed in case of electrospun scaffolds loaded with Rh123. After samples were taken, the reservoir chambers were rapidly rinsed with DI water and refilled with fresh phosphate buffer at 37° C. […] The geometry and porosity of the molecule-releasing scaffolds kept constant for all the experimental samples. For the designs with multiple molecules, as various fluorophores could be simultaneously released by the samples, the possibility of the overlap of the fluorophore emission spectra was examined; we could find no overlaps in the interested spectrum ranges. […] For each type of molecule, the efficiency of separation between Side A and Side B, Smolecule—A-B, was defined as the percentage of the molecule released on Side A over the total amount of the molecule released on Sides A and B during the entire experimental duration.
To assess the potential use of PCL-PLGAac and PCL-PLGAes materials for spatially controlled release of active molecules, release experiments were performed using Rh123. PCL and PLGA/Rh123 solutions were electrospun to prepare scaffolds following the pattern described in FIG. 1. Release studies were carried out in custom-made diffusion chambers illustrated in FIG. 7a. The two sealed reservoirs filled with phosphate buffer solution were placed on the opposite sides of the electrospun scaffolds. The PCL side of the scaffold was set to face the buffer reservoir chamber on Side “A”; the Rh123-impregnated PLGA side was placed in contact with the buffer reservoir on Side “B”. […] The separation efficiency of Rh123 between the two surfaces (SRh123—B-A) of the PCL-PLGAac scaffolds was 82±5% during the 9-day release experiment. […] In addition, after day 3, the molecule concentration measured on the PCL side exceeded that on the PLGAes side.

fluorescein isothiocyanate conjugate bovine serum albumin [AlbF]
separation efficiency (release of two proteins to one side) (PCL-PLGAac composite scaffold, AlbF in inner PLGAac fibers, AlbT in outer PLGAac fibers (FIG. 10a)): 87±5% | separation efficiency between side B and side A (sequential release scaffold) (PCL/PLGA scaffold with dual PLGA gradient patterns: AlbF-loaded PLGA in the middle, AlbT-loaded PLGA close to side B (FIG. 11a)): 0.92±0.03 | separation efficiency of AlbF between Side A and Side B (SAlbF A-B) (PLGAac-PCL-PLGAac composite scaffold, release to opposite sides (FIG. 12)): 91±4% | initial release rate on Side B compared to AlbT (dual-protein PCL-PLGAac scaffold, first 10 days, cumulative release normalized to total delivered protein): slower rate | day on which daily net release to side B peaked (sequential release scaffold (FIG. 11), first 12 days): 5 days
